From paper PMC10611586, “Molecular basis for ubiquitin/Fubi cross-reactivity in USP16 and USP36” (Nature Chemical Biology, 2023) come the findings set out here.

One may read the stoichiometry N as a count of units in the complex or per binding partner.

Holding throughout (details): both partners purified
Assay [1] addresses T1, Fubi-PA (untagged, wild type) (human, UniProt P62861 1-73, C-terminal propargylamine (PA) warhead).
T1 construct: Fubi, human, residues 1-73 of the 74-residue Fubi; also called wild-type Fubi-PA; Fubi-based probe
The experiment in a line: intact protein LC-MS; covalent USP36~probe complexes analysed by intact protein mass spectrometry.

In assay [2] the target is T2, ubiquitin-PA (untagged, wild type) (human, UniProt P0CG47 1-75, C-terminal propargylamine (PA) warhead).
T2 construct: ubiquitin, human, residues 1-75 of the 76-residue ubiquitin; also called Ub-PA; wild-type ubiquitin-PA
The description is as above.

For assay [3], the target named is T2, ubiquitin-PA (untagged, wild type). Description: activity-based probe labelling (covalent conjugate), SDS-PAGE; purified protease 2.5 µM and probe 10 µM, 1 h at 37 °C; 20 mM Tris pH 8.0, 300 mM NaCl, 2 mM DTT, 5% glycerol; SDS-PAGE and Coomassie staining.

T1 sequence (P62861 1-73): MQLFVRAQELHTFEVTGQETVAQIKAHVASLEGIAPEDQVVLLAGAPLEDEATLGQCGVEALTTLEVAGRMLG

B1: USP36^81–461 (catalytic domain, longer construct) (enzyme, human, UniProt Q9P275 81-461, looked up)
chain: ARRQGSEHTYESCGDGVPAPQKVLFPTERLSLRWERVFRVGAGLHNLGNTCFLNATIQCLTYTPPLANYLLSKEHARSCHQGSFCMLCVMQNHIVQAFANSGNAIKPVSFIRDLKKIARHFRFGNQEDAHEFLRYTIDAMQKACLNGCAKLDRQTQATTLVHQIFGGYLRSRVKCSVCKSVSDTYDPYLDVALEIRQAANIVRALELFVKADVLSGENAYMCAKCKKKVPASKRFTIHRTSNVLTLSLKRFANFSGGKITKDVGYPEFLNIRPYMSQNNGDPVMYGLYAVLVHSGYSCHAGHYYCYVKASNGQWYQMNDSLVHSSNVKVVLNQQAYVLFYLRIPGSKKSPEGLISRTGSSSLPGRPSVIPDHSKKNIGNGI
notes: also called recombinant USP36; source: E. coli Rosetta2(DE3)pLacI, purified (HisTrap, 3C cleavage, cation exchange)
With B1, the “stoichiometry N” value in assay [1] and in assay [2] was 1 each time.

B2: USP16^191–823 (catalytic domain) (enzyme, human, UniProt Q9Y5T5 191-823, looked up)
chain: CQITVKGLSNLGNTCFFNAVMQNLSQTPVLRELLKEVKMSGTIVKIEPPDLALTEPLEINLEPPGPLTLAMSQFLNEMQETKKGVVTPKELFSQVCKKAVRFKGYQQQDSQELLRYLLDGMRAEEHQRVSKGILKAFGNSTEKLDEELKNKVKDYEKKKSMPSFVDRIFGGELTSMIMCDQCRTVSLVHESFLDLSLPVLDDQSGKKSVNDKNLKKTVEDEDQDSEEEKDNDSYIKERSDIPSGTSKHLQKKAKKQAKKQAKNQRRQQKIQGKVLHLNDICTIDHPEDSEYEAEMSLQGEVNIKSNHISQEGVMHKEYCVNQKDLNGQAKMIESVTDNQKSTEEVDMKNINMDNDLEVLTSSPTRNLNGAYLTEGSNGEVDISNGFKNLNLNAALHPDEINIEILNDSHTPGTKVYEVVNEDPETAFCTLANREVFNTDECSIQHCLYQFTRNEKLRDANKLLCEVCTRRQCNGPKANIKGERKHVYTNAKKQMLISLAPPVLTLHLKRFQQAGFNLRKVNKHIKFPEILDLAPFCTLKCKNVAEENTRVLYSLYGVVEHSGTMRSGHYTAYAKARTANSHLSNLVLHGDIPQDFEMESKGQWFHISDTHVQAVPTTKVLNSQAYLLFYERIL
notes: USP16, human, catalytic domain, residues 191-823; also called recombinant USP16; source: E. coli Rosetta2(DE3)pLacI, purified (HisTrap, 3C cleavage, reverse Ni-NTA, anion exchange, SEC)
For the molecule B2, in assay [3], the binding result was “binds”.

B3: USP42^70–446 (catalytic domain) (enzyme, human, UniProt Q9H9J4 70-446, looked up)
chain: DKSKPSPQKDQALGDGIAPPQKVLFPSEKICLKWQQTHRVGAGLQNLGNTCFANAALQCLTYTPPLANYMLSHEHSKTCHAEGFCMMCTMQAHITQALSNPGDVIKPMFVINEMRRIARHFRFGNQEDAHEFLQYTVDAMQKACLNGSNKLDRHTQATTLVCQIFGGYLRSRVKCLNCKGVSDTFDPYLDITLEIKAAQSVNKALEQFVKPEQLDGENSYKCSKCKKMVPASKRFTIHRSSNVLTLSLKRFANFTGGKIAKDVKYPEYLDIRPYMSQPNGEPIVYVLYAVLVHTGFNCHAGHYFCYIKASNGLWYQMNDSIVSTSDIRSVLSQQAYVLFYIRSHDVKNGGELTHPTHSPGQSSPRPVISQRVVTNKQ
notes: USP42, human, catalytic domain, residues 70-446; also called recombinant USP42; source: E. coli Rosetta2(DE3)pLacI, purified (HisTrap, 3C cleavage, reverse Ni-NTA, cation exchange)
Take B3: in assay [3], the binding result is recorded as “binds”.

B4: USP2^258–605 (catalytic domain) (enzyme, human, UniProt O75604 258-605, looked up)
chain: MNSKSAQGLAGLRNLGNTCFMNSILQCLSNTRELRDYCLQRLYMRDLHHGSNAHTALVEEFAKLIQTIWTSSPNDVVSPSEFKTQIQRYAPRFVGYNQQDAQEFLRFLLDGLHNEVNRVTLRPKSNPENLDHLPDDEKGRQMWRKYLEREDSRIGDLFVGQLKSSLTCTDCGYCSTVFDPFWDLSLPIAKRGYPEVTLMDCMRLFTKEDVLDGDEKPTCCRCRGRKRCIKKFSIQRFPKILVLHLKRFSESRIRTSKLTTFVNFPLRDLDLREFASENTNHAVYNLYAVSNHSGTTMGGHYTAYCRSPGTGEWHTFNDSSVTPMSSSQVRTSDAYLLFYELASPPSRM
notes: USP2, human, catalytic domain, residues 258-605; also called recombinant USP2; source: E. coli Rosetta2(DE3)pLacI, purified (HisTrap, 3C cleavage, SEC)
As for B4, in assay [3], the binding result was “binds”.

B5: USP36^81–424 (catalytic domain, shorter construct) (enzyme, human, UniProt Q9P275 81-424, looked up)
chain: ARRQGSEHTYESCGDGVPAPQKVLFPTERLSLRWERVFRVGAGLHNLGNTCFLNATIQCLTYTPPLANYLLSKEHARSCHQGSFCMLCVMQNHIVQAFANSGNAIKPVSFIRDLKKIARHFRFGNQEDAHEFLRYTIDAMQKACLNGCAKLDRQTQATTLVHQIFGGYLRSRVKCSVCKSVSDTYDPYLDVALEIRQAANIVRALELFVKADVLSGENAYMCAKCKKKVPASKRFTIHRTSNVLTLSLKRFANFSGGKITKDVGYPEFLNIRPYMSQNNGDPVMYGLYAVLVHSGYSCHAGHYYCYVKASNGQWYQMNDSLVHSSNVKVVLNQQAYVLFYLRIP
notes: USP36, human, catalytic domain, residues 81-424; also called shorter USP36^81–424 construct; source: E. coli Rosetta2(DE3)pLacI, purified (HisTrap, 3C cleavage, cation exchange)
As for B5, the binding result in assay [3] was “binds”.
